According to PMC6762143:

Key:
[1] = target: FRET-PGK1 (PGK1 labeled with mEGFP at the N-terminus and mCherry at the C-terminus) (yeast) (UniProt P00560)
[2] = target: ePGK3, expressed in U-2 OS cells (yeast) (UniProt P00560); assay: FRET or BRET; in living U-2 OS cells co-transfected with both proteins; only cells with about 1:1 expression; epifluorescence microscope, infrared laser temperature ramp 19-46°C; average of 15-30 cells
[3] = target: ePGK2, expressed in U-2 OS cells (yeast) (UniProt P00560); assay: as above
[4] = target: mEGFP (free), expressed in U-2 OS cells; assay: as above

Hsp70 (as used in the stopped flow PGK refolding assay) (from UniProt P0DMV8 1-641) (natural protein)
folding efficiency of GuHCl-denatured efPGK1 in stopped flow refolding (intramolecular FRET) with 100 μM Hsp70 and 22.5 μM Hsp40, 2 mM ATP; 47% without Hsp70 [1]: 57%

mHsp70 (Hsp70 labeled by mCherry at the C-terminus), expressed in U-2 OS cells (from UniProt P0DMV8 1-641) (natural protein)
T0 (binding temperature midpoint) [2]: 37.1 °C | overall E FRET change [2]: 8% | T0 (binding temperature midpoint) [3]: 39.1 °C | overall E FRET change [3]: 8%

mCherry (free), expressed in U-2 OS cells
E FRET change [4]: 2%
